Six molecules from US20250296959A1, “B7-H3 TARGETING PEPTIDES AND CONSTRUCTS THEREOF” (Mariana Oncology Inc., priority 2024, published 2025) can be followed below.

Starred links: 1 amine or outer side, 2 acyl side, 3 side chain; linkers in the order of their positions; H or OH if unused. Positions of bridges follow the written chain, without caps; N, C: chain ends. Non-standard residues stand in square brackets, D forms with d. Groups on a side chain read outwards from the residue. Primed or numbered codes have the meaning given here. *: point of attachment. Ala(piperidin-4-yl) = O=C([C@H](CC1CCN([*:3])CC1)N[*:1])[*:2]; DOTA = O=C(O)CN1CCN(CC(=O)O)CCN(CC(=O)*)CCN(CC(=O)O)CC1; PipAla = piperidinyl-alanine residue (as named); Phe(4-COOH) = N[C@@H](Cc1ccc(C(=O)O)cc1)C(=O)O; Trp(5-F) = N[C@@H](Cc1c[nH]c2ccc(F)cc12)C(=O)O; PEG4′ = 4x 3-(2-aminoethoxy)propanoic acid; 1Nal = N[C@@H](Cc1cccc2ccccc12)C(=O)O; Ala(4-THP) = N[C@@H](CC1CCOCC1)C(=O)O; Val(3-OH) = CC(C)(O)[C@H](N)C(=O)O; hCha = N[C@@H](CCC1CCCCC1)C(=O)O; 4Pal = N[C@@H](Cc1ccncc1)C(=O)O; Tle = CC(C)(C)[C@H](N)C(=O)O; hLeu = CC(C)CC[C@H](N)C(=O)O; Nle = CCCC[C@H](N)C(=O)O

One experiment addresses T1, B7-H3 on Calu-6 cells (human, UniProt Q5ZPR3 29-534).
T1 construct: whole, on cells
T1 sequence (looked up): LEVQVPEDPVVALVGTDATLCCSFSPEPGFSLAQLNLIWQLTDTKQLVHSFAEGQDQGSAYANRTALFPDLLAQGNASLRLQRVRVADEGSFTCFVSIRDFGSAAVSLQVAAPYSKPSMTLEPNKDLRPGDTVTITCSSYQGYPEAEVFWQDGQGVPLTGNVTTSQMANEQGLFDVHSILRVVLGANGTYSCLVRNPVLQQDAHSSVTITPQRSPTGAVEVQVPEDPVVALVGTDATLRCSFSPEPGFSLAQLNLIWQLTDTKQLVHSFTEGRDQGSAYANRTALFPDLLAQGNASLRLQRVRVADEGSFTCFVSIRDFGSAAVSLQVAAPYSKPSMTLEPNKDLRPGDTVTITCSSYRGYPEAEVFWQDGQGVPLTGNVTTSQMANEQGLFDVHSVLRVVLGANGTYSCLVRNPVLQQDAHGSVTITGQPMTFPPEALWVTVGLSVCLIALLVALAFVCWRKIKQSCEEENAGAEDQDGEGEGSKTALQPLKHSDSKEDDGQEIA
The experiment is described as follows: 177Lu-labelled peptide on Calu-6 cells, % cell associated fraction; B = 25<%<=50.

The target in experiment [1] is Biotinylated human 4Ig B7-H3 (human) (UniProt Q5ZPR3). The experiment is described as follows: SPR 37C; A = KD<=1.0 nM.
In experiment [2] the target is T2, Biotinylated human 4Ig B7-H3 (human, UniProt Q5ZPR3 29-461, limits assumed, biotinylated (site not stated)).
T2 construct: Protein captured on the SA chip for SPR; also called 4lg-B7-H3; B7-H3 isoform 4Ig
T2 sequence: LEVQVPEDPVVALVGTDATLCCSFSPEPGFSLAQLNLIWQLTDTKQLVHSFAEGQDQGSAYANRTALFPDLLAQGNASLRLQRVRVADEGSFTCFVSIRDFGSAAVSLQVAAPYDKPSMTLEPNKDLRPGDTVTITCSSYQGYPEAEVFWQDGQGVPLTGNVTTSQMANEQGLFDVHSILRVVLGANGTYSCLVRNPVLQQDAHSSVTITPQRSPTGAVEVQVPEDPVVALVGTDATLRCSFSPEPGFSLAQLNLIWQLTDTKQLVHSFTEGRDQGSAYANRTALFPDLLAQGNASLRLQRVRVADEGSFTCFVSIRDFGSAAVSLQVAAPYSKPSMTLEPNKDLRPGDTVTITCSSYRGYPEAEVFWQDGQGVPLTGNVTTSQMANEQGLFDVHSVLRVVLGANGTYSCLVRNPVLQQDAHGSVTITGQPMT
Put plainly: SPR 37C; C = 10<KD<=100 nM.

Consider Ac-[hLeu]YCIGK(DOTA)[4Pal]DVYC[Trp(5-F)]F[Val(3-OH)]-NH2 (disulfide 3-11) [Cpd 230], for which the “% cell associated fraction” value with B7-H3 on Calu-6 cells lay within 25 to 50%.

For the molecule Ac-[hLeu]YCIGK(DOTA)[Ala(piperidin-4-yl)]DVYC[Trp(5-F)]F[Val(3-OH)]-NH2 (disulfide 3-11) [Cpd 203], the “% cell associated fraction” value with B7-H3 on Calu-6 cells fell in the range of 25 to 50%.

As usually defined, the KD is the free concentration of one partner at which half of the binding sites on the other are occupied at equilibrium, for simple one-to-one binding. A higher KD goes with a looser complex. For the molecule Ac-[hLeu]YC[Tle]G[Ala(piperidin-4-yl)][Phe(4-COOH)]DVYC[1Nal]FP[dK](DOTA)-NH2 (disulfide 3-11 (inferred)) [Cpd 314], in experiment [1], the KD is less than 1 nM.

With Ac-[Nle]YCVGKYDVYCWFT-OH (disulfide 3-11) [Cpd 33], the KD in experiment [2] was in the range of 10 to 100 nM.

The molecule Ac-[hCha]YC[Tle]G[PipAla]([PEG4′-DOTA])[Ala(4-THP)]DVYC[Trp(5-F)]F[Val(3-OH)][dA]-OH (disulfide 3-11 (inferred)) [Cpd 485] yielded a KD in experiment [1] of less than 1 nM.

B1: Cpd 29 (peptide)
peptide: Ac-[Nle]YCVGKYDVYCWFE[dK](DOTA)-NH2
modifications: disulfide 3-11
SMILES: CCCC[C@H](NC(C)=O)C(=O)N[C@@H](Cc1ccc(O)cc1)C(=O)N[C@H]1CSSC[C@@H](C(=O)N[C@@H](Cc2c[nH]c3ccccc23)C(=O)N[C@@H](Cc2ccccc2)C(=O)N[C@@H](CCC(=O)O)C(=O)N[C@H](CCCCNC(=O)CN2CCN(CC(=O)O)CCN(CC(=O)O)CCN(CC(=O)O)CC2)C(N)=O)NC(=O)[C@H](Cc2ccc(O)cc2)NC(=O)[C@H](C(C)C)NC(=O)[C@H](CC(=O)O)NC(=O)[C@H](Cc2ccc(O)cc2)NC(=O)[C@H](CCCCN)NC(=O)CNC(=O)[C@H](C(C)C)NC1=O
Consider B1, for which the KD in experiment [2] lay in the range of 10 to 100 nM.
